Experimental findings from patent publication US10562936B2, “Ligands for integrin αvβ6, synthesis and uses thereof” (Technische Universitat Munchen, priority 2015, dated 2020) are described below.

The test system of test [1] is human oral squamous cell carcinoma (OSCC) cell line HN (high integrin αvβ6). Briefly: Cell binding / fluorescence bioimaging of Cy5.5 conjugate on HN cells. Type of test: cell-based. From the text:
The human oral squamous cell carcinoma (OSCC) cell line HN were purchased from the German Collection of Microorganisms and Cell Cultures, Braunschweig, Germany (DSMZ no. ACC 417). HN cells derived from a cervical lymph node metastasis of a highly aggressive and invasive OSCC of the soft palate.^[9] As control cells, we used the human ovarian cancer cell line OVMZ6 with low integrin αvβ6 and high integrin αvβ3 expression.^[10] All cells were cultivated in Dulbecco's Modified Eagle's Medium (DMEM) (Sigma-Aldrich, St. Louis, Mo., USA), supplemented with 10% (v/v) fetal calf serum (FCS) (Gibco, LifeTechnologies™, Carlsbad, Calif., USA).
HN and OVMZ6 cells were cultivated for 24 h on fibronectin-coated microchamber slides at a density of 25×10^3/well, thereafter fixed in 2% (w/v) PFA for 15 min at r.t. and washed in PBS. The Cy5.5-conjugated compound 18-Cy5.5, dissolved in PBS, 5% (v/v) dimethyl sulfoxide (DMSO), was applied at a final concentration of […] for 1 h at r.t., followed by 3 washes in PBS. […] As control peptide served the non-binding cycl(R^betaADfK) labelled via lysine side-chain NH2 group with Cy5.5 fluorescent dye. After the incubation period, cells were washed 6 times in PBS and slides mounted. Fluorescence signal intensity was detected by the microscope Zeiss LSM 700 (Zeiss) as described above.

Test [2] has as its target integrin α5β1 (soluble integrin) (UniProt P08648). Briefly: solid-phase binding assay, internal standard; coated fibronectin, soluble α5β1.
The next test addresses T1, αvβ5 (Homo sapiens, UniProt P06756+P18084).
T1 construct: using coated extracellular matrix proteins and soluble integrins
As to the kind of experiment: Solid-phase integrin binding assay, αvβ5 (coated Vitronectin). The settings on record: solid-phase binding assay, Vitronectin coated; read-out: αvβ5, IC50. Here is the method: (§1) The activity and selectivity of integrin ligands were determined by a solid-phase binding assay according to the previously reported protocols using coated extracellular matrix proteins and soluble integrins: Fibronectin (Fn) for α5β1, latent activating protein (LAP) for αvβ6 and αvβ8, Vitronectin (Vn) for αvβ3 and αvβ5, Fibrinogen (Fbg) for aIIbβ3.

The next test deals with T2, αvβ3 (Homo sapiens, UniProt P05106+P06756).
T2 construct: using coated extracellular matrix proteins and soluble integrins
T2 sequence (P06756 31-992 limits assumed): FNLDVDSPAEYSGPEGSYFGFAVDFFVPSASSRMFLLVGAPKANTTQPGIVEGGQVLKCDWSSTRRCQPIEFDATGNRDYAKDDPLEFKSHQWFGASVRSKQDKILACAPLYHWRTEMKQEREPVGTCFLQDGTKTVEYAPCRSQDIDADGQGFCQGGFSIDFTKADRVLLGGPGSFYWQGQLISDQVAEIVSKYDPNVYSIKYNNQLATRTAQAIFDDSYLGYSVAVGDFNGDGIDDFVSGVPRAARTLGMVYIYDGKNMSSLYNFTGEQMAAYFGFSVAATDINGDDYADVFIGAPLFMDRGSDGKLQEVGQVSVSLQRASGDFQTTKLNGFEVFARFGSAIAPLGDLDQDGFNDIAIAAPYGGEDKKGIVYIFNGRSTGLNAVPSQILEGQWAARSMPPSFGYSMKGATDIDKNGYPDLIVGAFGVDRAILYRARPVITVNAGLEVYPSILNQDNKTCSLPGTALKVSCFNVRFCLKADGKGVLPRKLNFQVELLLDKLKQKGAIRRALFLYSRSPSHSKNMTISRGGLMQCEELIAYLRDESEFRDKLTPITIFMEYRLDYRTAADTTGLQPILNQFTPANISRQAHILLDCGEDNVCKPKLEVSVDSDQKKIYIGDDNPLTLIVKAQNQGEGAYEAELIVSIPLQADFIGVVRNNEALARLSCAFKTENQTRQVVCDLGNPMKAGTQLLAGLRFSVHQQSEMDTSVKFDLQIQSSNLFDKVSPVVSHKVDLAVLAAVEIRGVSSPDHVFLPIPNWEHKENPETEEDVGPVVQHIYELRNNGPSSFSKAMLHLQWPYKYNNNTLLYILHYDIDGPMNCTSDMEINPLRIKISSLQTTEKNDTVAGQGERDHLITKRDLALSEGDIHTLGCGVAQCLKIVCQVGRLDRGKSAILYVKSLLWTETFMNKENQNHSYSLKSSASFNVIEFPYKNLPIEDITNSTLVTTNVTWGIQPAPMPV
T2 sequence (P05106 27-718 limits assumed): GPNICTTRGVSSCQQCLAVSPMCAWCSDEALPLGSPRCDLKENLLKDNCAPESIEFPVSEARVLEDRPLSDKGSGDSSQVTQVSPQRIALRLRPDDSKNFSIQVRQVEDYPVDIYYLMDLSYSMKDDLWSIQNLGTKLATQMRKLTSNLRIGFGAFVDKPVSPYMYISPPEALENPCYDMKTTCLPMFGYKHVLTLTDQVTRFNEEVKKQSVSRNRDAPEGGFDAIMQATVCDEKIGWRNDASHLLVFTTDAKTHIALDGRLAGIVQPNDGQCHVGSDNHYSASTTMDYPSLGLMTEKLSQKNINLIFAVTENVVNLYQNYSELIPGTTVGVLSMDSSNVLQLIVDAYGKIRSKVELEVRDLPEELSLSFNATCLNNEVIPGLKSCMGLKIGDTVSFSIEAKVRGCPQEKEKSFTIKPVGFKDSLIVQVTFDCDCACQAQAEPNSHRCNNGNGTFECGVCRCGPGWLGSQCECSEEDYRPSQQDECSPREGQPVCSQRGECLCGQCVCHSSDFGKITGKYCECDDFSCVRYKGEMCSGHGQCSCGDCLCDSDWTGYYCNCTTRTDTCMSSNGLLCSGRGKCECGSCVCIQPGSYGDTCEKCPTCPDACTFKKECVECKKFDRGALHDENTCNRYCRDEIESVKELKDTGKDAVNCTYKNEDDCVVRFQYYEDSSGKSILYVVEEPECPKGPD
Briefly: Solid-phase integrin binding assay, αvβ3 (coated Vitronectin). The settings on record: solid-phase binding assay, Vitronectin coated; read-out: αvβ3, IC50. The procedure: as §1

The next test addresses T3, αIIbβ3 (Homo sapiens, UniProt P05106+P08514).
T3 construct: using coated extracellular matrix proteins and soluble integrins
Briefly: Solid-phase integrin binding assay, αIIbβ3 (coated Fibrinogen). The settings on record: solid-phase binding assay, Fibrinogen coated; read-out: αIIbβ3, IC50. The procedure: as §1

For a further test, the target named is αvβ6 (Homo sapiens, UniProt P06756+P18564). As to the kind of experiment: Solid-phase integrin binding assay, αvβ6 (coated LAP, soluble integrin). The arrangement: using coated extracellular matrix proteins and soluble integrins. Here is the method: as §1
Test [3] addresses T4, integrin αvβ6 (soluble integrin) (UniProt P06756 31-992; P18564 22-707).
T4 construct: Only 'soluble integrins' is said
Briefly: solid-phase binding assay, internal standard; coated LAP, soluble αvβ6.

Test [4] has as its target T5, integrin αvβ8 (soluble integrin) (UniProt P06756 31-992; P26012 43-684).
T5 construct: Only 'soluble integrins' is said
As to the kind of experiment: solid-phase binding assay, internal standard; coated LAP, soluble αvβ8.

Test [5] deals with T6, integrin αvβ3 (soluble integrin) (UniProt P06756 31-992; P05106 27-718).
T6 construct: Only 'soluble integrins' is said
T6 sequence (P06756 31-992, chain 1 of 2): as the sequence (P06756 31-992 limits assumed) above
T6 sequence (P05106 27-718, chain 2 of 2): as the sequence (P05106 27-718 limits assumed) above
As to the kind of experiment: solid-phase binding assay, competition; coated vitronectin, soluble αvβ3.

Test [6] concerns the target T7, integrin α5β1 (soluble integrin) (UniProt P08648 42-995; P05556 21-728).
T7 construct: Only 'soluble integrins' is said
As to the kind of experiment: solid-phase binding assay, competition; coated fibronectin, soluble α5β1.

Test [7] concerns the target T6, integrin αvβ3 (soluble integrin). Briefly: solid-phase binding assay, competition; coated vitronectin, soluble αvβ3. This is another data set of the same source.
The target of test [8] is T5, integrin αvβ8 (soluble integrin). As to the kind of experiment: solid-phase binding assay, competition; coated LAP, soluble αvβ8.
The target of test [9] is T6, integrin αvβ3 (soluble integrin). Briefly: ratio of IC50s αvβ6:αvβ3, printed the other way round (6.1 for αvβ6 to 1 for αvβ3).
The target of test [10] is T4, integrin αvβ6 (soluble integrin). Briefly: solid-phase binding assay, competition; coated LAP, soluble αvβ6.

Read-outs that look alike come from different tables or passages of the source. Square brackets hold non-standard residues; d marks the D form. Side chains are listed from the residue outwards. Peptide text beside a SMILES is read from it. Cy5.5 = Cyanine-5.5; Ahx = NCCCCCC(=O)O; βAla = NCCC(=O)O Some results are limits rather than exact numbers.

T7 sequence (P08648 42-995, chain 1 of 2): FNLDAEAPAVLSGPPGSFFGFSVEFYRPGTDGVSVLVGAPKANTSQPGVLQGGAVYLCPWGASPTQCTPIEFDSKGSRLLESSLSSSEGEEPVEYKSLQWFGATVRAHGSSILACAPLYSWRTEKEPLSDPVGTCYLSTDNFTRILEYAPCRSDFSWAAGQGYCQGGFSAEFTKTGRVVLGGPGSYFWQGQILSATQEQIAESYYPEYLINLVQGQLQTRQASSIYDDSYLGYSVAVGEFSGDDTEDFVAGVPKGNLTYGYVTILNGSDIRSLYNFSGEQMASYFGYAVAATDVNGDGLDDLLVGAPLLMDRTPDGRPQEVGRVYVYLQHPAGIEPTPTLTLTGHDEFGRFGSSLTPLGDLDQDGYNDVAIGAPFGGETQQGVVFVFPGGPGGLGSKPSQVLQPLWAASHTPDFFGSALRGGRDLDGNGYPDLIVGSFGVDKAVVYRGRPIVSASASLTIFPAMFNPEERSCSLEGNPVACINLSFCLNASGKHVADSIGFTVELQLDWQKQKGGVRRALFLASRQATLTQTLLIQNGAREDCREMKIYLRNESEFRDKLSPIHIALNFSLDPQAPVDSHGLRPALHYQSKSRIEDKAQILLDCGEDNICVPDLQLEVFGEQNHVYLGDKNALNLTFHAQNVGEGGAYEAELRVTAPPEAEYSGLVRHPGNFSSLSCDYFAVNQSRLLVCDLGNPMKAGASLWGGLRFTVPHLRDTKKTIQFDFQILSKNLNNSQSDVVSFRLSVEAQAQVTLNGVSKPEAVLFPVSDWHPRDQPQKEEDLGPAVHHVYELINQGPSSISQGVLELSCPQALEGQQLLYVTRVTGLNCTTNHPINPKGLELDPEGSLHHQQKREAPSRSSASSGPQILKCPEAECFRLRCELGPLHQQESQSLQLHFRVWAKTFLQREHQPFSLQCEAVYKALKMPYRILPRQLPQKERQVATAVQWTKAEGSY
T7 sequence (P05556 21-728, chain 2 of 2): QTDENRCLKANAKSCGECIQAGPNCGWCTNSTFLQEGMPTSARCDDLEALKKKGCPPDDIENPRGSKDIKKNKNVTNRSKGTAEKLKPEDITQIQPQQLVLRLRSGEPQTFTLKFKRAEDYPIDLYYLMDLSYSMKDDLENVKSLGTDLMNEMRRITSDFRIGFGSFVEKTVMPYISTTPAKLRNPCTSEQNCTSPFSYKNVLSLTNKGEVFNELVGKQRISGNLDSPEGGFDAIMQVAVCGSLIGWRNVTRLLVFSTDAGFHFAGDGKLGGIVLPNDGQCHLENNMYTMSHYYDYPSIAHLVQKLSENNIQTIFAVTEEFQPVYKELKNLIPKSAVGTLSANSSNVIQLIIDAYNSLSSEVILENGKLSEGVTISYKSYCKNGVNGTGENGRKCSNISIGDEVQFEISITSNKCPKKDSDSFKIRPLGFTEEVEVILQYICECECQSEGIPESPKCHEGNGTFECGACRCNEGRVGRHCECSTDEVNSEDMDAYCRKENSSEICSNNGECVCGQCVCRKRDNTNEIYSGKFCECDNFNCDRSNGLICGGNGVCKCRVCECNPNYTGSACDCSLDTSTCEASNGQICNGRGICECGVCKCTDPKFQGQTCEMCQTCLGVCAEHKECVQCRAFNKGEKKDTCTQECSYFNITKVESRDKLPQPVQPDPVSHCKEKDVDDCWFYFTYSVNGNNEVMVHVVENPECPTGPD
T5 sequence (P06756 31-992, chain 1 of 2): as the sequence (P06756 31-992 limits assumed) above
T5 sequence (P26012 43-684, chain 2 of 2): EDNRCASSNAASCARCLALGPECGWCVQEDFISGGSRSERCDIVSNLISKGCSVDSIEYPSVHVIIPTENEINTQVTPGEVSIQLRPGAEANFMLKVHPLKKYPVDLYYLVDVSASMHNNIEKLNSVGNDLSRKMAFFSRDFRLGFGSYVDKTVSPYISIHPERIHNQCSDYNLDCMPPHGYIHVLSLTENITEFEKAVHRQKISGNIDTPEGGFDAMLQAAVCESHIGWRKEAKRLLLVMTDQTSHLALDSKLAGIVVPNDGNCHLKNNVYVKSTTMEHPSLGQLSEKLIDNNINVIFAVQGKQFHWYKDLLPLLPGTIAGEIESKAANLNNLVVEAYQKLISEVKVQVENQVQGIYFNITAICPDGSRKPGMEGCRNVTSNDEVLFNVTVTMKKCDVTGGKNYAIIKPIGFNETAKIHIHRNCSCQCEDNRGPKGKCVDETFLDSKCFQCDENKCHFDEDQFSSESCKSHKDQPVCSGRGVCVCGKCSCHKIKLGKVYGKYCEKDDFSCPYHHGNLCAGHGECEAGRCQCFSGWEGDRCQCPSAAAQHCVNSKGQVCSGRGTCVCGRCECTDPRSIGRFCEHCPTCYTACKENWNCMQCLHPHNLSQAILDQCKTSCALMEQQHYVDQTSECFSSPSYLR
T4 sequence (P06756 31-992, chain 1 of 2): as the sequence (P06756 31-992 limits assumed) above
T4 sequence (P18564 22-707, chain 2 of 2): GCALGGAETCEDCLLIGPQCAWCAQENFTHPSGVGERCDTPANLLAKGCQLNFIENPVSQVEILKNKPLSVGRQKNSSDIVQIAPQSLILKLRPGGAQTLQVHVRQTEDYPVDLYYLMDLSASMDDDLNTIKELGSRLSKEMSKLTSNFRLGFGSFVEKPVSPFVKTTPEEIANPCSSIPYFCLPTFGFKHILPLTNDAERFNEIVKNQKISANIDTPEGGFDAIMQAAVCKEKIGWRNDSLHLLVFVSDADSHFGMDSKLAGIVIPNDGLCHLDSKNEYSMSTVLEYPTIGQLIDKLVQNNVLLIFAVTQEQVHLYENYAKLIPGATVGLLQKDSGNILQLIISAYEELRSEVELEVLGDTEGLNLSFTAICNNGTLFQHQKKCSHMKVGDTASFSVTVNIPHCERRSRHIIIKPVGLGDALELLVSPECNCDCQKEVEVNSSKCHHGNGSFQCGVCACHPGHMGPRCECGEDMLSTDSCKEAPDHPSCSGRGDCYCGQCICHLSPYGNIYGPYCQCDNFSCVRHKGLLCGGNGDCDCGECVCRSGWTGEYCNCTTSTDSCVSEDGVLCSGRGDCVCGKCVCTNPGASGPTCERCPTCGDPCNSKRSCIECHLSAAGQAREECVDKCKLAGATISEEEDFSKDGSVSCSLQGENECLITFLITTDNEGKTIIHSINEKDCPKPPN
Chain of integrin α5β1 (soluble integrin) (UniProt P08648) (P08648 42-995, chain 1 of 2): as the sequence (P08648 42-995, chain 1 of 2) above
Chain of integrin α5β1 (soluble integrin) (UniProt P08648) (P05556 21-728, chain 2 of 2, further chain): as the sequence (P05556 21-728, chain 2 of 2) above

In the case of `CC(C)C[C@@H]1NC(=O)[C@H](CC(=O)O)NC(=O)CNC(=O)[C@H](CCCNC(=N)N)NC(=O)[C@H](Cc2ccccc2)NC(=O)[C@H](CCCCN)N(C)C(=O)[C@H]2CCCN2C(=O)[C@H](Cc2ccccc2)NC(=O)[C@H](C)NC1=O` [Compound 18, F R G D L A F p (NMe)K], the “binding competition: fluorescence signal intensity of 18-Cy5.5 after pre-incubation” value in test [1] (10-fold molar excess of unlabeled analogue for 1 h at r.t. prior to 18-Cy5.5) is listed as “strong reduction in fluorescence signal intensity”.

The IC50 is the concentration at which inhibition is half-maximal. Cilengitide, c(-RGDf(NMe)V-) (peptide): the IC50 in test [2] lay in the range of 1 to 8 nM.

As to “cycl(R^betaADfK)-ahx-Cy5.5 (cyclo(R[βAla]D[dF]K([Ahx-Cy5.5]))) [reference compound]”, in [1] (fixed HN cells, conjugate 10 M, 1 h at r.t.), the “fluorescence signal intensity on cells” value was “did not result in fluorescence signal intensity”.

Turning to `CC(C)C[C@@H]1NC(=O)[C@H](CC(=O)O)NC(=O)CNC(=O)[C@H](CCCNC(=N)N)NC(=O)[C@H](Cc2ccccc2)NC(=O)[C@@H]2CCCN2C(=O)[C@H]2CCCN2C(=O)[C@H](CC(C)C)NC(=O)[C@H](C)NC1=O` [Compound 12, F R G D L A L p P] (cyclo(FRGDLAL[dP]P)), the IC50 is more than 1000 nM on αvβ5, more than 1000 nM at αvβ3, more than 1000 nM at αIIbβ3 and 1.25 nM on αvβ6.

B1: linear peptide RTDLDSLRT (peptide)
peptide: RTDLDSLRT
notes: also called control peptide (plasma stability)
With B1, the half-maximal inhibitory concentration (IC50) in [3] lay within 6 to 33 nM; in test [4], 8 to 100 nM.

B2: Compound 4, cyclic peptide A R G D L A L p P (peptide)
peptide: cyclo(ARGDLAL[dP]P)
SMILES: CC(C)C[C@@H]1NC(=O)[C@H](CC(=O)O)NC(=O)CNC(=O)[C@H](CCCNC(=N)N)NC(=O)[C@H](C)NC(=O)[C@@H]2CCCN2C(=O)[C@H]2CCCN2C(=O)[C@H](CC(C)C)NC(=O)[C@H](C)NC1=O
notes: also called Cpd
Turning to B2, the 50% inhibitory concentration (IC50) in [5] was 106 nM; in test [6], 266 nM; in [7], 106 nM; in [8], 42.9 nM.

B3: Compound 11, cyclic peptide A R G D L A K p P (peptide)
peptide: cyclo(ARGDLAK[dP]P)
SMILES: CC(C)C[C@@H]1NC(=O)[C@H](CC(=O)O)NC(=O)CNC(=O)[C@H](CCCNC(=N)N)NC(=O)[C@H](C)NC(=O)[C@@H]2CCCN2C(=O)[C@H]2CCCN2C(=O)[C@H](CCCCN)NC(=O)[C@H](C)NC1=O
notes: also called Cpd; 11
Turning to B3, the IC50 amounted to 302 nM in test [5], 831 nM in test [6], 302 nM in test [7] and 49.3 nM in [8].

B4: Compound 8, cyclic peptide A R G D L D L p P (peptide)
peptide: cyclo(ARGDLDL[dP]P)
SMILES: CC(C)C[C@@H]1NC(=O)[C@H](CC(=O)O)NC(=O)CNC(=O)[C@H](CCCNC(=N)N)NC(=O)[C@H](C)NC(=O)[C@@H]2CCCN2C(=O)[C@H]2CCCN2C(=O)[C@H](CC(C)C)NC(=O)[C@H](CC(=O)O)NC1=O
notes: Comparative compound (*)
For B4, the Ratio in [9] stood at 6.1. The IC50 in test [5] was determined as 2.4 nM; in test [10] it was 14.7 nM.

B5: Compound 10, cyclic peptide A R G D L A F p P (peptide)
peptide: cyclo(ARGDLAF[dP]P)
SMILES: CC(C)C[C@@H]1NC(=O)[C@H](CC(=O)O)NC(=O)CNC(=O)[C@H](CCCNC(=N)N)NC(=O)[C@H](C)NC(=O)[C@@H]2CCCN2C(=O)[C@H]2CCCN2C(=O)[C@H](Cc2ccccc2)NC(=O)[C@H](C)NC1=O
notes: also called Cpd; 10
As to B5, the IC50 in test [5] came to 104 nM; in test [6] it was 38.4 nM; in [7], 104 nM; in [8], 10.4 nM.

B6: Compound 1, cyclic peptide A R G D L A A L p P (peptide)
peptide: cyclo(ARGDLAAL[dP]P)
notes: Comparative compound (*); also called Cpd
Take B6: the IC50 in test [5] is 76.7 nM; in [6], 454 nM; in [7], 76.7 nM; in test [8], 115 nM.
